The record followed here is paper PMC10397247.

One assay concerns the target T1, APC3354-AA.
T1 chain: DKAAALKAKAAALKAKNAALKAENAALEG
In words: two-hybrid library CCmax.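 Also: natural log of median RNA to DNA barcode read ratio; higher means stronger binding.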 To be noted: mean of both orientations.

The target in another assay is T2, APC8401-AA.
T2 chain: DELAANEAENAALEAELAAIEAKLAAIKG
Description: two-hybrid library CCmax.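 Also: natural log of median RNA to DNA barcode read ratio; higher means stronger binding.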 To be noted: mean of both orientations.

Another assay concerns the target T3, APC5009-AA.
T3 chain: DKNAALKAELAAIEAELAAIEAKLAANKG
Description: two-hybrid library CCmax.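 Also: natural log of median RNA to DNA barcode read ratio; higher means stronger binding.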 To be noted: mean of both orientations.

The target in another assay is T4, APC2375-AA.
T4 chain: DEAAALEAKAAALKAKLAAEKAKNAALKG
In words: two-hybrid library CCmax.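 Also: natural log of median RNA to DNA barcode read ratio; higher means stronger binding.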 The settings on record: mean of both orientations.

The next assay concerns the target T5, APC542-AA.
T5 chain: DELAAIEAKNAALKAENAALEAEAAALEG
In words: two-hybrid library CCmax.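 Also: natural log of median RNA to DNA barcode read ratio; higher means stronger binding.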 The settings on record: mean of both orientations.

A further assay addresses T6, APC9291-AA.
T6 chain: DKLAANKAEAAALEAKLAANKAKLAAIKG
Description: two-hybrid library CCmax.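 Also: natural log of median RNA to DNA barcode read ratio; higher means stronger binding.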 To be noted: mean of both orientations.

Another assay addresses T7, APC222-AA.
T7 chain: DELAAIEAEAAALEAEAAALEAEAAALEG
In words: two-hybrid library CCmax. The settings on record: mean of both orientations.

A further assay deals with T8, APC3265-AA.
T8 chain: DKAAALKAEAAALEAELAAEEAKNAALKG
In words: two-hybrid library CCmax. The settings on record: mean of both orientations.

The target in the next assay is T9, APC2556-AA.
T9 chain: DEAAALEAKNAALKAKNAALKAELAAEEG
Description: two-hybrid library CCmax. The settings on record: mean of both orientations.

The target of another assay is T10, APC9141-AA.
T10 chain: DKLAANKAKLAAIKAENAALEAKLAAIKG
In words: two-hybrid library CCmax. The settings on record: mean of both orientations.

The next assay concerns the target T11, APC1987-AA.
T11 chain: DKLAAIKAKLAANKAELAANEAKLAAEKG
Description: two-hybrid library CCmax. The settings on record: mean of both orientations.

A further assay deals with T12, APC2474-AA.
T12 chain: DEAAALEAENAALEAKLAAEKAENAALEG
Description: two-hybrid library CCmax. The settings on record: mean of both orientations.

For another assay, the target named is T13, APC6088-AA.
T13 chain: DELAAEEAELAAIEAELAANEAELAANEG
Description: two-hybrid library CCmax. The settings on record: mean of both orientations.

The target of a further assay is T14, APC3881-AA.
T14 chain: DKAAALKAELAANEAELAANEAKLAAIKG
Description: two-hybrid library CCmax. To be noted: mean of both orientations.

The target of a further assay is T15, APC3323-AA.
T15 chain: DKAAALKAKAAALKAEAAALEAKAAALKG
Description: two-hybrid library CCmax. To be noted: mean of both orientations.

A further assay has as its target T16, APC2811-AA.
T16 chain: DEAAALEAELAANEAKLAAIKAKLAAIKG
In words: two-hybrid library CCmax. To be noted: mean of both orientations.

For the next assay, the target named is T17, APC5531-AA.
T17 chain: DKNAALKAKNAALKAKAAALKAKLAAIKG
In words: two-hybrid library CCmax. To be noted: mean of both orientations.

In the next assay the target is T18, APC7524-AA.
T18 chain: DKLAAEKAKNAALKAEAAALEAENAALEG
In words: two-hybrid library CCmax. The settings on record: mean of both orientations.

A further assay deals with T19, APC2724-AA.
T19 chain: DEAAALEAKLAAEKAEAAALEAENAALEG
In words: two-hybrid library CCmax. The settings on record: mean of both orientations.

The target in another assay is T20, APC2543-AA.
T20 chain: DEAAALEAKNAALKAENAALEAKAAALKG
In words: two-hybrid library CCmax. To be noted: mean of both orientations.

The target of the next assay is T21, APC1916-AA.
T21 chain: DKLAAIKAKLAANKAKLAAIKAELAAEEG
In words: two-hybrid library CCmax.

The target in the next assay is T22, APC2257-AA.
T22 chain: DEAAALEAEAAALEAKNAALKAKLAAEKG
Description: two-hybrid library CCmax. To be noted: mean of both orientations.

The next assay concerns the target T23, APC9182-AA.
T23 chain: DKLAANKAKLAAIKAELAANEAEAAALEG
Description: two-hybrid library CCmax. The settings on record: mean of both orientations.

In a further assay the target is T24, APC2981-AA.
T24 chain: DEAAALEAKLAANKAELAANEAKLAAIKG
Description: two-hybrid library CCmax. To be noted: mean of both orientations.

A further assay deals with T25, APC4336-AA.
T25 chain: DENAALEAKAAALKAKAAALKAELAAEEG
Description: two-hybrid library CCmax. The settings on record: mean of both orientations.

The target of another assay is T26, APC4100-AA.
T26 chain: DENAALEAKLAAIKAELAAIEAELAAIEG
In words: two-hybrid library CCmax. To be noted: mean of both orientations.

A further assay concerns the target T27, APC8516-AA.
T27 chain: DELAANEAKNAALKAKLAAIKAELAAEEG
Description: two-hybrid library CCmax. The settings on record: mean of both orientations.

For a further assay, the target named is T28, APC9806-AA.
T28 chain: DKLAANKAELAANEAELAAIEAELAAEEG
Description: two-hybrid library CCmax. To be noted: mean of both orientations.

A further assay addresses T29, P6SHb.
T29 chain: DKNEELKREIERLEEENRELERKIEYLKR
Description: two-hybrid library CCNG1.

The target in the next assay is T30, P2SHb.
T30 chain: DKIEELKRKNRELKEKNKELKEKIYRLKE
Description: two-hybrid library CCNG1.

Another assay concerns the target T31, P9SHb.
T31 chain: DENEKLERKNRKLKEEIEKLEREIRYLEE
Description: two-hybrid library CCNG1.

The next assay deals with T32, P4SHb.
T32 chain: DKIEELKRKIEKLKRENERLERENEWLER
In words: two-hybrid library CCNG1.

For a further assay, the target named is T33, P8SHb.
T33 chain: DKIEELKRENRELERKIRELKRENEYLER
Description: two-hybrid library CCNG1.

The target of another assay is T34, P12SHb.
T34 chain: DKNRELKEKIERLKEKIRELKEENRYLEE
Description: two-hybrid library CCNG1.

A further assay concerns the target T35, P7SHb.
T35 chain: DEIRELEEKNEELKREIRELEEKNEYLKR
Description: two-hybrid library CCNG1.

Another assay addresses T36, P5SHb.
T36 chain: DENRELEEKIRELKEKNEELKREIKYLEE
In words: two-hybrid library CCNG1.

The target in another assay is T37, P3SHb.
T37 chain: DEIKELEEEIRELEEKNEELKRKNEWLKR
Description: two-hybrid library CCNG1.

The target in a further assay is T38, P1SHb.
T38 chain: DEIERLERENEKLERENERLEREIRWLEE
Description: two-hybrid library CCNG1.

Consider DKLAAIKAKLAANKAKLAAIKAELAAEEG [APC1916-AA], for which the interaction score is -1.8 with APC3354-AA; -0.817 in the assay with APC8401-AA; -0.00974 with APC5009-AA; -1.88 with APC2375-AA; -1.62 in the assay with APC542-AA; -2.08 with APC9291-AA. Also, the interaction score with APC222-AA was -1.45; in the assay with APC3265-AA, -1.75; in the assay with APC2556-AA, -1.71; in the assay with APC9141-AA, -1.7; with APC1987-AA, -2.06; with APC2474-AA it was -1.31. The interaction score was -1.82 with APC6088-AA; -1.78 with APC3881-AA; -1.94 with APC3323-AA; -2.01 with APC2811-AA; -1.75 with APC5531-AA; -1.57 with APC7524-AA. Moreover, the interaction score with APC2724-AA is -1.83; with APC2543-AA it was -1.62; with APC1916-AA it was -1.89; with APC2257-AA, -1.73; in the assay with APC9182-AA, -1.82; in the assay with APC2981-AA, -1.78. The interaction score with APC4336-AA was -1.64; with APC4100-AA, 0.352; in the assay with APC8516-AA it was -1.83; in the assay with APC9806-AA it was -2.04.

For DKNRELKEKIERLKEKIRELKEENRYLEE [P12SHb], the interaction score was 0.412 with P6SHb; -1.12 with P2SHb; 1.48 with P9SHb; -0.198 with P4SHb; -0.747 with P8SHb; -0.206 in the assay with P12SHb. The interaction score in the assay with P7SHb was -0.593; with P5SHb, 0.0253; with P3SHb it was 0.41; with P1SHb, -1.47.
